The target in the series is T1, MBP-MYB62 (Arabidopsis thaliana, UniProt Q9C9G7 1-286).
T1 sequence: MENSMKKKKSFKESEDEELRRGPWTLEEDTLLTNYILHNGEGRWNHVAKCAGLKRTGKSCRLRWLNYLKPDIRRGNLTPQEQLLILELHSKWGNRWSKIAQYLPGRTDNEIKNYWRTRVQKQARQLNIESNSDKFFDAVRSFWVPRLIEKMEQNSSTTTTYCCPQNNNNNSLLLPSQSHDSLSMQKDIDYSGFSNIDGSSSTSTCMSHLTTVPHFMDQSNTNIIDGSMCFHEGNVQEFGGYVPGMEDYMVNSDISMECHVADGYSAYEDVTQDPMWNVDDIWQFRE
As to the kind of experiment: EMSA; EMSA: 2.5% glycerol, 50 mM KCl, 5 mM MgCl2, 10 mM EDTA, 30 min, room temperature; pH not stated. Particulars: protein: recombinant; tags: MBP (pMAL-c2x); label: biotin on both strands (BIO printed before each oligo); blunt.

B1: ProGA2ox7 probe (MYB element) (dsDNA)
DNA 1: AAGCCCTTGGTTGGGGATGG
DNA 2: CCATCCCCAACCAAGGGCTT
Take B1: the binding result was “binds”.

Values taken from PMC8347620, “Arabidopsis G-Protein β Subunit AGB1 Negatively Regulates DNA Binding of MYB62, a Suppressor in the Gibberellin Pathway”.
